The experiment deals with T1, TNFR1 (Homo sapiens, UniProt P19438).
T1 chain: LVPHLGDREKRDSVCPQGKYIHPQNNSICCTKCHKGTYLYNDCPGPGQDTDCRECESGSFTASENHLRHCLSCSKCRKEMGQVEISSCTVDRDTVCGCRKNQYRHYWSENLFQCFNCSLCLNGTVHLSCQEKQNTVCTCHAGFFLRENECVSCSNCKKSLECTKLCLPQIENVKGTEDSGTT
Put plainly: ELISA.

Bridges are numbered along the chain shown (N, C = ends). Where no end group is shown, it is not given here.

As to YCWSQYLCY (disulfide 2-8 (inferred)) [WP9QY], the Kd (as a rule, the concentration at which binding is half-saturated) came out at 1150 nM. In other words, the single-digit micromolar range.
The molecule CTISRIAVSYQTKVNRLSC (disulfide 1-19) [L16R (α_CC8 L16R cyclic peptide)] showed a Kd of 177 nM.
